Assay results as given in paper PMC7845616, “Convergent Evolution of a Promiscuous 3-Hydroxypropionyl-CoA Dehydratase/Crotonyl-CoA Hydratase in Crenarchaeota and Thaumarchaeota” (mSphere, 2021).

Key:
[1] = substrate: C[C@H](O)CC(=O)SCCNC(=O)CCNC(=O)[C@H](O)C(C)(C)COP(=O)(O)OP(=O)(O)OC[C@H]1O[C@@H](n2cnc3c(N)ncnc32)[C@H](O)[C@@H]1OP(=O)(O)O; experiment: dehydration coupled to Ccr, UHPLC; format: biochemical, Syntrophothermus lipocalidus; conditions: 100 mM Tris-HCl pH 7.8, 42°C, 1 mM NADPH, 50 mM NaHCO3, Ccr
Description: (§1) dehydration coupled to Ccr, UHPLC on Slip_2089

[2] = substrate: CC(C)(COP(=O)(O)OP(=O)(O)OC[C@H]1O[C@@H](n2cnc3c(N)ncnc32)[C@H](O)[C@@H]1OP(=O)(O)O)[C@@H](O)C(=O)NCCC(=O)NCCSC(=O)CCO; experiment: dehydration coupled to Ccr, UHPLC; format: biochemical, Syntrophothermus lipocalidus; conditions: 100 mM Tris-HCl pH 7.8, 42°C, 1 mM NADPH, 50 mM NaHCO3, Ccr
Description: as §1

[3] = substrate: C=CC(=O)SCCNC(=O)CCNC(=O)[C@H](O)C(C)(C)COP(=O)(O)OP(=O)(O)OC[C@H]1O[C@@H](n2cnc3c(N)ncnc32)[C@H](O)[C@@H]1OP(=O)(O)O; experiment: UHPLC of 3-hydroxypropionyl-CoA formed; format: biochemical, Syntrophothermus lipocalidus; conditions: 100 mM Tris-HCl pH 7.8, 42°C
Description: UHPLC of 3-hydroxypropionyl-CoA formed on Slip_2089

[4] = substrate: C/C=C/C(=O)SCCNC(=O)CCNC(=O)[C@H](O)C(C)(C)COP(=O)(O)OP(=O)(O)OC[C@H]1O[C@@H](n2cnc3c(N)ncnc32)[C@H](O)[C@@H]1OP(=O)(O)O; experiment: UHPLC of 3-hydroxybutyryl-CoA formed; format: biochemical, Syntrophothermus lipocalidus; conditions: 100 mM Tris-HCl pH 7.8, 42°C
Description: UHPLC of 3-hydroxybutyryl-CoA formed on Slip_2089

[5] = substrate: CCCCC/C=C/C(=O)SCCNC(=O)CCNC(=O)[C@H](O)C(C)(C)COP(=O)(O)OP(=O)(O)OC[C@H]1O[C@@H](n2cnc3c(N)ncnc32)[C@H](O)[C@@H]1OP(=O)(O)O; experiment: UHPLC of 3-hydroxyoctanoyl-CoA formed; format: biochemical, Syntrophothermus lipocalidus; conditions: 100 mM Tris-HCl pH 7.8, 42°C
Description: UHPLC of 3-hydroxyoctanoyl-CoA formed on Slip_2089

[6] = substrate: C=C(C)C(=O)SCCNC(=O)CCNC(=O)[C@H](O)C(C)(C)COP(=O)(O)OP(=O)(O)OC[C@H]1O[C@@H](n2cnc3c(N)ncnc32)[C@H](O)[C@@H]1OP(=O)(O)O; experiment: UHPLC of 3-hydroxy-2-methylpropionyl-CoA formed; format: biochemical, Syntrophothermus lipocalidus; conditions: 100 mM Tris-HCl pH 7.8, 42°C
Description: UHPLC of 3-hydroxy-2-methylpropionyl-CoA formed on Slip_2089

[7] = substrate: C[C@H](O)CC(=O)SCCNC(=O)CCNC(=O)[C@H](O)C(C)(C)COP(=O)(O)OP(=O)(O)OC[C@H]1O[C@@H](n2cnc3c(N)ncnc32)[C@H](O)[C@@H]1OP(=O)(O)O; experiment: dehydration coupled to Ccr, UHPLC; format: biochemical, Nitrosopumilus maritimus; conditions: 100 mM Tris-HCl pH 7.8, 30°C, 1 mM NADPH, 50 mM NaHCO3, Ccr
Description: (§2) dehydration coupled to Ccr, UHPLC on Nmar_1308

[8] = substrate: CC(C)(COP(=O)(O)OP(=O)(O)OC[C@H]1O[C@@H](n2cnc3c(N)ncnc32)[C@H](O)[C@@H]1OP(=O)(O)O)[C@@H](O)C(=O)NCCC(=O)NCCSC(=O)CCO; experiment: dehydration coupled to Ccr, UHPLC; format: biochemical, Nitrosopumilus maritimus; conditions: 100 mM Tris-HCl pH 7.8, 30°C, 1 mM NADPH, 50 mM NaHCO3, Ccr
Description: as §2

[9] = substrate: CCCCC/C=C/C(=O)SCCNC(=O)CCNC(=O)[C@H](O)C(C)(C)COP(=O)(O)OP(=O)(O)OC[C@H]1O[C@@H](n2cnc3c(N)ncnc32)[C@H](O)[C@@H]1OP(=O)(O)O; experiment: UHPLC of 3-hydroxyoctanoyl-CoA formed; format: biochemical, Nitrosopumilus maritimus; conditions: 100 mM Tris-HCl pH 7.8, 30°C
Description: UHPLC of 3-hydroxyoctanoyl-CoA formed on Nmar_1308

[10] = substrate: C=CC(=O)SCCNC(=O)CCNC(=O)[C@H](O)C(C)(C)COP(=O)(O)OP(=O)(O)OC[C@H]1O[C@@H](n2cnc3c(N)ncnc32)[C@H](O)[C@@H]1OP(=O)(O)O; experiment: UHPLC of 3-hydroxypropionyl-CoA formed; format: biochemical, Nitrosopumilus maritimus; conditions: 100 mM Tris-HCl pH 7.8, 30°C
Description: UHPLC of 3-hydroxypropionyl-CoA formed on Nmar_1308

[11] = substrate: C/C=C/C(=O)SCCNC(=O)CCNC(=O)[C@H](O)C(C)(C)COP(=O)(O)OP(=O)(O)OC[C@H]1O[C@@H](n2cnc3c(N)ncnc32)[C@H](O)[C@@H]1OP(=O)(O)O; experiment: UHPLC of 3-hydroxybutyryl-CoA formed; format: biochemical, Nitrosopumilus maritimus; conditions: 100 mM Tris-HCl pH 7.8, 30°C
Description: UHPLC of 3-hydroxybutyryl-CoA formed on Nmar_1308

[12] = substrate: CCCCC/C=C/C(=O)SCCNC(=O)CCNC(=O)[C@H](O)C(C)(C)COP(=O)(O)OP(=O)(O)OC[C@H]1O[C@@H](n2cnc3c(N)ncnc32)[C@H](O)[C@@H]1OP(=O)(O)O; experiment: UHPLC of 3-hydroxyoctanoyl-CoA formed; format: biochemical, Metallosphaera sedula; conditions: 100 mM Tris-HCl pH 7.8, 65°C
Description: UHPLC of 3-hydroxyoctanoyl-CoA formed on Msed_0566

[13] = substrate: C/C=C/C(=O)SCCNC(=O)CCNC(=O)[C@H](O)C(C)(C)COP(=O)(O)OP(=O)(O)OC[C@H]1O[C@@H](n2cnc3c(N)ncnc32)[C@H](O)[C@@H]1OP(=O)(O)O; experiment: UHPLC of 3-hydroxybutyryl-CoA formed; format: biochemical, Metallosphaera sedula; conditions: 100 mM Tris-HCl pH 7.8, 65°C
Description: UHPLC of 3-hydroxybutyryl-CoA formed on Msed_0566

[14] = substrate: C=C(C)C(=O)SCCNC(=O)CCNC(=O)[C@H](O)C(C)(C)COP(=O)(O)OP(=O)(O)OC[C@H]1O[C@@H](n2cnc3c(N)ncnc32)[C@H](O)[C@@H]1OP(=O)(O)O; experiment: UHPLC of 3-hydroxy-2-methylpropionyl-CoA formed; format: biochemical, Metallosphaera sedula; conditions: 100 mM Tris-HCl pH 7.8, 65°C
Description: UHPLC of 3-hydroxy-2-methylpropionyl-CoA formed on Msed_0566

[15] = substrate: C=CC(=O)SCCNC(=O)CCNC(=O)[C@H](O)C(C)(C)COP(=O)(O)OP(=O)(O)OC[C@H]1O[C@@H](n2cnc3c(N)ncnc32)[C@H](O)[C@@H]1OP(=O)(O)O; experiment: UHPLC of 3-hydroxypropionyl-CoA formed; format: biochemical, Metallosphaera sedula; conditions: 100 mM Tris-HCl pH 7.8, 65°C
Description: UHPLC of 3-hydroxypropionyl-CoA formed on Msed_0566

[16] = substrate: CCCCC/C=C/C(=O)SCCNC(=O)CCNC(=O)[C@H](O)C(C)(C)COP(=O)(O)OP(=O)(O)OC[C@H]1O[C@@H](n2cnc3c(N)ncnc32)[C@H](O)[C@@H]1OP(=O)(O)O; experiment: UHPLC of 3-hydroxyoctanoyl-CoA formed; format: biochemical, Metallosphaera sedula; conditions: 100 mM Tris-HCl pH 7.8, 65°C; remark: listed apart in the source
Description: UHPLC of 3-hydroxyoctanoyl-CoA formed on Msed_2001

[17] = substrate: C=CC(=O)SCCNC(=O)CCNC(=O)[C@H](O)C(C)(C)COP(=O)(O)OP(=O)(O)OC[C@H]1O[C@@H](n2cnc3c(N)ncnc32)[C@H](O)[C@@H]1OP(=O)(O)O; experiment: UHPLC of 3-hydroxypropionyl-CoA formed; format: biochemical, Metallosphaera sedula; conditions: 100 mM Tris-HCl pH 7.8, 65°C; remark: listed apart in the source
Description: UHPLC of 3-hydroxypropionyl-CoA formed on Msed_2001

[18] = substrate: C/C=C/C(=O)SCCNC(=O)CCNC(=O)[C@H](O)C(C)(C)COP(=O)(O)OP(=O)(O)OC[C@H]1O[C@@H](n2cnc3c(N)ncnc32)[C@H](O)[C@@H]1OP(=O)(O)O; experiment: UHPLC of 3-hydroxybutyryl-CoA formed; format: biochemical, Metallosphaera sedula; conditions: 100 mM Tris-HCl pH 7.8, 65°C; remark: listed apart in the source
Description: UHPLC of 3-hydroxybutyryl-CoA formed on Msed_2001

[19] = substrate: C[C@H](O)CC(=O)SCCNC(=O)CCNC(=O)[C@H](O)C(C)(C)COP(=O)(O)OP(=O)(O)OC[C@H]1O[C@@H](n2cnc3c(N)ncnc32)[C@H](O)[C@@H]1OP(=O)(O)O; experiment: dehydration coupled to Ccr, UHPLC; format: biochemical, Metallosphaera sedula; conditions: 100 mM Tris-HCl pH 7.8, 42°C, 1 mM NADPH, 50 mM NaHCO3, Ccr
Description: (§3) dehydration coupled to Ccr, UHPLC on Msed_2001

[20] = substrate: CC(C)(COP(=O)(O)OP(=O)(O)OC[C@H]1O[C@@H](n2cnc3c(N)ncnc32)[C@H](O)[C@@H]1OP(=O)(O)O)[C@@H](O)C(=O)NCCC(=O)NCCSC(=O)CCO; experiment: dehydration coupled to Ccr, UHPLC; format: biochemical, Metallosphaera sedula; conditions: 100 mM Tris-HCl pH 7.8, 42°C, 1 mM NADPH, 50 mM NaHCO3, Ccr
Description: as §3

B1: Slip_2089 (Syntrophothermus lipocalidus DSM 12680) (protein)
chain: MEDKQKSVKCSIDDQGIAIVTINRPHALNALNREVFTELGKVFDELRDNPRARVVVLTGEGQKAFAAGSDITEMKECSVLEAREFAMLANRTQGKIETFPKPVIAAVNGFALGGGCEVAMACDIRIASSNAKFGQPEINLGIIPGGGGTQRLARLVGLGRAKELVYSGGIIDAQRAYEIGLVNKVVPAEALMSEALGLAAKIASKSMPVLMLAKVAFNHGFSMDLDKALQFEIECFAECFGTDDHTEGMSAFIERREPAFKDK
notes: pET16b, His10-tagged, expressed in E. coli Rosetta 2 (DE3), Ni-NTA purified
- Km [1]: 1310 ± 310 µM
- kcat/Km [1]: 41000 M⁻¹ s⁻¹
- Km [2]: 350 ± 60 µM
- kcat/Km [2]: 2000 M⁻¹ s⁻¹
- Km [3]: 400 ± 50 µM
- kcat/Km [3]: 138000 M⁻¹ s⁻¹
- Km [4]: 160 ± 20 µM
- kcat/Km [4]: 143000 M⁻¹ s⁻¹
- Km [5]: 210 ± 40 µM
- kcat/Km [5]: 562000 M⁻¹ s⁻¹
- Km [6]: 1010 ± 220 µM
- kcat/Km [6]: 500 M⁻¹ s⁻¹

B2: Nmar_1308 (Nitrosopumilus maritimus SCM1) (protein)
chain: MSLVTTSTSDGICTVKINRPDKLNAMNTDVAKELIKTFEELNHNDDVKVIILTGEGEKAFSAGADIEYMSKISADESVEYAKTGQLVTATVELVKQPTIAAVNGFALGGGCELAMSCDIRIAADTAKLGQPEVTIGVPPGWGGTQRLMRIVGIAKAKELVYTGKMIKAEEAKEIGLVNHVVPLASLQEEALKMAQQIAGNSTMGVQMSKVAINKGRNADLDTGLGLEILAWRNCFTHPDRQERMTAFVNKSKK
notes: as for B1
- Km [7]: 360 ± 60 µM
- Vmax [7]: 1520 ± 92 µmol/min/mg
- kcat/Km [7]: 2.12e+06 M⁻¹ s⁻¹
- Km [8]: 170 ± 30 µM
- Vmax [8]: 38 µmol/min/mg
- kcat/Km [8]: 113000 M⁻¹ s⁻¹
- Km [9]: 120 ± 20 µM
- Vmax [9]: 47 µmol/min/mg
- kcat/Km [9]: 198000 M⁻¹ s⁻¹
- Km [10]: 710 ± 70 µM
- Vmax [10]: 11400 ± 392 µmol/min/mg
- kcat/Km [10]: 8.09e+06 M⁻¹ s⁻¹
- Km [11]: 450 ± 30 µM
- Vmax [11]: 3790 ± 111 µmol/min/mg
- kcat/Km [11]: 4.25e+06 M⁻¹ s⁻¹

B3: Msed_0566 (Metallosphaera sedula DSM 5348) (protein)
chain: MDVILEKRKGYLLLTFNTGGRYNVFTTRFMIEMIDTLSEVEKIRDPHYLVIKGENGNFGAGADVKELLKANGDKEYAKVYFGHMKDLFVKMLSLNKVTIGLIEGVAYGASMELLLALDIVIAKRGTKFAAPGGKLGVFPPVLVSIGPYLLGHRTSRKLAMLGEELDTQGAINAGLIDYEVDDLEKGLLELLNRLKVMSPSAQVRMRKLILQSLIPHLEKAFDELATQVTSDEAREGISSFFSKTSPSWSSVGFS
notes: as for B1
- Km [12]: 180 ± 60 µM
- kcat/Km [12]: 16000 M⁻¹ s⁻¹
- Km [13]: 80 ± 30 µM
- kcat/Km [13]: 19000 M⁻¹ s⁻¹
- Km [14]: 140 ± 30 µM
- kcat/Km [14]: 2000 M⁻¹ s⁻¹
- Km [15]: 37 ± 2 µM
- kcat/Km [15]: 39000 M⁻¹ s⁻¹

B4: Msed_2001 (Metallosphaera sedula DSM 5348) (protein)
chain: MEFETIETKKEGNLFWITLNRPDKLNALNAKLLEELDRAVSQAESDPEIRVIIITGKGKAFCAGADITQFNQLTPAEAWKFSKKGREIMDKIEALSKPTIAMINGYALGGGLELALACDIRIAAEEAQLGLPEINLGIYPGYGGTQRLTRVIGKGRALEMMMTGDRIPGKDAEKYGLVNRVVPLANLEQETRKLAEKIAKKSPISLALIKEVVNRGLDSPLLSGLALESVGWGVVFSTEDKKEGVSAFLEKREPTFKGK
notes: pET16b, N-terminal His10-tag, expressed in E. coli Rosetta 2 (DE3), heat precipitation and Ni-NTA purified
- Km [16]: 48 ± 5 µM
- kcat/Km [16]: 3.94e+07 M⁻¹ s⁻¹
- Km [17]: 140 ± 10 µM
- kcat/Km [17]: 9.94e+07 M⁻¹ s⁻¹
- Km [18]: 80 ± 10 µM
- kcat/Km [18]: 3.16e+07 M⁻¹ s⁻¹
- Km [19]: 34 ± 4 µM
- kcat/Km [19]: 4.38e+07 M⁻¹ s⁻¹
- Km [20]: 160 ± 20 µM
- kcat/Km [20]: 3.26e+06 M⁻¹ s⁻¹
